Reference: patent publication US20150299686A1

What was measured:
[1] = target: FrsA (Fermentation Respiration Switch) protein from Vibrio vulnificus, wild type, recombinant (Vibrio vulnificus) (UniProt Q7MN61); test: cell-based or functional assay
[2] = target: non-phosphorylated recombinant IIA^Glc protein (crr gene product) from Vibrio vulnificus
[3] = target: phosphorylated recombinant IIA^Glc protein (crr gene product) from Vibrio vulnificus

Molecule: non-phosphorylated recombinant IIA^Glc protein (crr gene product) from Vibrio vulnificus
- catalytic activity of FrsA as fold over PDC [1]: 17 times

B1: FrsA (Fermentation Respiration Switch) protein from Vibrio vulnificus, wild type, recombinant (protein)
chain: MSEEVSKNLSETLFVKHKQAIETSALTQYMPTSQSLLDEIKEKNGFSWYRNLRRLQWVWQGVDPIEQEQVLARIASSKHSRTDEQWLDTVMGYHSGNWAYEWTRLGMEHQKRAGEMTNEAASEALFSASLCYSIAGYPHLKSDNLAIQAQVLANSAYLEAAKKSKYIIKQLEIPFEKGKITAHLHLTNTDKPHPVVIVSAGLDSLQTDMWRLFRDHLAKHDIAMLTVDMPSVGYSSKYPLTEDYSRLHQAVLNELFSIPYVDHHRVGLIGFRFGGNAMVRLSFLEQERIKACVILGAPIHDIFASPQKLQQMPKMYLDVLASRLGKSVVDIYSLSGQMAAWSLKVQGFLSSRKTKVPILAMSLEGDPVSPYSDNQMVAFFSTYGKAKKISSKTITQGYEQSLDLAIKWLEDELLR
- Km (pyruvate decarboxylation by FrsA with dephospho-IIA^Glc added) [2]: 390 µM
- kcat (pyruvate decarboxylation by FrsA with dephospho-IIA^Glc added) [2]: 2980 ± 158 s⁻¹
- kcat/Km (pyruvate decarboxylation by FrsA with dephospho-IIA^Glc added) [2]: 7.64e+06 ± 713000 M⁻¹ s⁻¹
- Km (pyruvate decarboxylation by FrsA with phospho-IIA^Glc added) [3]: 390 µM
- kcat (pyruvate decarboxylation by FrsA with phospho-IIA^Glc added) [3]: 1310 ± 48 s⁻¹
- kcat/Km (pyruvate decarboxylation by FrsA with phospho-IIA^Glc added) [3]: 3.36e+06 ± 150000 M⁻¹ s⁻¹
